Reference: paper PMC8219380, “The discriminatory power of the T cell receptor” (eLife, 2021)

System: CXCR4
Assay: Discrimination power from published data: CXCR4
Conditions: ID 21; output Voltage; n 5; ns; ref Guyon 2013
Source text: The broad method was to obtain a measure of ligand potency from each study. […] If not explicitly provided, we estimated ligand potency as PX , which was defined by the concentration of ligand that produced X response. To do this, we drew a horizontal line at X on a provided dose-response graph and estimated the ligand concentration where the data intercepted the horizontal line. The disadvantage with this method is that ligand potency was estimated based on the single representative graph provided in the study.
Each study often contained or cited a study that contained estimates of KD or koff for the specific TCR/pMHC interactions used in the study. We only included studies where monomeric SPR binding data was available to avoid multimeric binding parameters (e.g. when using tetramers). However, when analysing discrimination by other non-TCR receptors, we included binding data from various methods (e.g. SPR, radio labelled ligands) provided they were monomeric measurements. The use of SPR is important for weak interactions, such as TCR/pMHC, but various methods are available for higher-affinity interactions.
The plot of potency over KD or k off was fit using linear regression on log-transformed axes. We reported the slope of the fit (i.e. the discrimination power, α), the goodness-of-fit measure ( R^2 ), and the p-value for the null hypothesis that the slope is zero (i.e. α=0 ). […]

B1: CXCR4: receptor tested with Baclofen and other GABA ligands (protein, UniProt P61073 1-352, looked up)
C-X-C chemokine receptor type …: MEGISIYTSDNYTEEMGSGDYDSMKEPCFREENANFNKIFLPTIYSIIFLTGIVGNGLVILVMGYQKKLRSMTDKYRLHLSVADLLFVITLPFWAVDAVANWYFGNFLCKAVHVIYTVNLYSSVLILAFISLDRYLAIVHATNSQRPRKLLAEKVVYVGVWIPALLLTIPDFIFANVSEADDRYICDRFYPNDLWVVVFQFQHIMVGLILPGIVILSCYCIIISKLSHSKGHQKRKALKTTVILILAFFACWLPYYIGISIDSFILLEIIKQGCEFENTVHKWISITEALAFFHCCLNPILYAFLGAKFKTSAQHALTSVSRGSSLKILSKGKRGGHSSVSTESESSSFHSS
Q: Which “Power (discrimination power)” value does the source give for B1 here?
A: The value was 0.5686.
